Source: the supplement of paper PMC9112550, “Optimization of the antimicrobial peptide Bac7 by deep mutational scanning” (BMC Biology, 2022)

Test system: Escherichia coli TOP10
Assay: shrunken log2 fold change of peptide-encoding DNA abundance (4.5 h post-induction vs induction); higher = less antimicrobial activity (less host growth inhibition)
Details: time post-induction: 4.5 h; library: site-saturation at positions 5, 18, 19, 20
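Also: peptides expressed intracellularly from a pBAD plasmid library in pooled LB shake-flask culture, induced with 0.3% L-arabinose, DNA abundance read by NGS, three biological replicates, DESeq2 with apeglm shrinkage.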

Sequence	shrunken log2 fold change
RRIRERPPRLPRPRPRPVVHPRP	-0.0247
RRIRDRPPRLPRPRPRPNGVPRP	-0.0244
RRIRNRPPRLPRPRPRPYIGPRP	0.0261
RRIRMRPPRLPRPRPRPYMPPRP	-0.312
RRIRMRPPRLPRPRPRPEHFPRP	0.0315
RRIRNRPPRLPRPRPRPNSWPRP	-0.3
RRIRVRPPRLPRPRPRPGAHPRP	0.0262
RRIRYRPPRLPRPRPRPCCIPRP	-0.129
RRIRARPPRLPRPRPRPCICPRP	-0.0352
RRIRHRPPRLPRPRPRPQIRPRP	-0.207
RRIRWRPPRLPRPRPRPEDPPRP	0.157
RRIRFRPPRLPRPRPRPTTDPRP	-0.13
RRIRKRPPRLPRPRPRPTLFPRP	0.111
RRIRWRPPRLPRPRPRPMTCPRP	-0.34
RRIRSRPPRLPRPRPRPPDYPRP	-0.0864
RRIRNRPPRLPRPRPRPYFQPRP	-0.317
RRIRTRPPRLPRPRPRPQERPRP	0.00298
RRIRVRPPRLPRPRPRPLCQPRP	0.258
RRIRHRPPRLPRPRPRPWPKPRP	0.015
RRIRYRPPRLPRPRPRPQISPRP	-0.0191
RRIRKRPPRLPRPRPRPNAWPRP	0.0867
RRIRIRPPRLPRPRPRPTDGPRP	-0.00546
RRIRTRPPRLPRPRPRPCKDPRP	0.027
RRIRNRPPRLPRPRPRPSLRPRP	-0.00371
RRIRTRPPRLPRPRPRPMSYPRP	0.0494

Sequence	shrunken log2 fold change
RRIRFRPPRLPRPRPRPRQHPRP	0.0181
RRIRERPPRLPRPRPRPQRFPRP	0.0827
RRIRWRPPRLPRPRPRPHINPRP	-0.491
RRIRQRPPRLPRPRPRPYAIPRP	-0.436
RRIRERPPRLPRPRPRPEAYPRP	-0.0132
RRIRSRPPRLPRPRPRPSDMPRP	-0.373
RRIRCRPPRLPRPRPRPTMYPRP	-0.541
RRIRKRPPRLPRPRPRPHDCPRP	0.108
RRIRMRPPRLPRPRPRPHWRPRP	0.0569
RRIRNRPPRLPRPRPRPVCVPRP	-0.04
RRIRERPPRLPRPRPRPFDEPRP	-0.433
RRIRGRPPRLPRPRPRPLIRPRP	0.0808
RRIRDRPPRLPRPRPRPDVCPRP	0.833
RRIRCRPPRLPRPRPRPIHTPRP	-0.527
RRIRPRPPRLPRPRPRPHYLPRP	-0.906
RRIRSRPPRLPRPRPRPFEPPRP	-0.268
RRIRTRPPRLPRPRPRPEEPPRP	0.0165
RRIRFRPPRLPRPRPRPDLWPRP	0.187
RRIRVRPPRLPRPRPRPMACPRP	-0.147
RRIRDRPPRLPRPRPRPDFYPRP	0.00164
RRIRWRPPRLPRPRPRPKHCPRP	0.0806
RRIRTRPPRLPRPRPRPEHHPRP	-0.203
RRIRYRPPRLPRPRPRPYSDPRP	-0.237
RRIRHRPPRLPRPRPRPRWGPRP	0.255
RRIRLRPPRLPRPRPRPLDRPRP	0.25

Sequence	shrunken log2 fold change
RRIRDRPPRLPRPRPRPIFQPRP	0.242
RRIRIRPPRLPRPRPRPNCSPRP	-0.175
RRIRFRPPRLPRPRPRPMYRPRP	-0.29
RRIRTRPPRLPRPRPRPKTWPRP	-0.268
RRIRTRPPRLPRPRPRPAIAPRP	0.101
RRIRYRPPRLPRPRPRPDGEPRP	-0.159
RRIRARPPRLPRPRPRPWRNPRP	-0.0929
RRIRIRPPRLPRPRPRPEGFPRP	-0.321
RRIRERPPRLPRPRPRPHSAPRP	-0.179
RRIRQRPPRLPRPRPRPGGTPRP	0.11
RRIRNRPPRLPRPRPRPMKVPRP	0.0279
RRIRGRPPRLPRPRPRPGRSPRP	0.85
RRIRLRPPRLPRPRPRPHYGPRP	-0.232
RRIRFRPPRLPRPRPRPYTVPRP	-0.00354
RRIRSRPPRLPRPRPRPDMIPRP	-0.00286
RRIRYRPPRLPRPRPRPHGYPRP	-0.0146
RRIRWRPPRLPRPRPRPMSIPRP	-0.191
RRIRRRPPRLPRPRPRPSAMPRP	0.378
RRIRCRPPRLPRPRPRPMACPRP	0.00876
RRIRSRPPRLPRPRPRPPQAPRP	0.768
RRIRIRPPRLPRPRPRPWRLPRP	-0.0935
RRIRYRPPRLPRPRPRPMWPPRP	0.158
RRIRGRPPRLPRPRPRPMLNPRP	0.477
RRIRLRPPRLPRPRPRPKKTPRP	0.0684
RRIRDRPPRLPRPRPRPMFMPRP	0.169

Sequence	shrunken log2 fold change
RRIRRRPPRLPRPRPRPCKTPRP	-0.103
RRIRNRPPRLPRPRPRPYTSPRP	-0.325
RRIRPRPPRLPRPRPRPLVSPRP	0.00371
RRIRPRPPRLPRPRPRPVGMPRP	-0.0812
RRIRSRPPRLPRPRPRPFWAPRP	-0.00411
RRIRARPPRLPRPRPRPSSTPRP	-0.0285
RRIRQRPPRLPRPRPRPTVNPRP	-0.0853
RRIRDRPPRLPRPRPRPIPMPRP	-0.00947
RRIRFRPPRLPRPRPRPQVIPRP	-0.364
RRIRERPPRLPRPRPRPWFSPRP	-0.336
RRIRYRPPRLPRPRPRPSVLPRP	-0.444
RRIRIRPPRLPRPRPRPHSGPRP	-0.00591
RRIRWRPPRLPRPRPRPMLYPRP	0.0136
RRIRTRPPRLPRPRPRPCIMPRP	-0.2
RRIRGRPPRLPRPRPRPMRCPRP	0.581
RRIRMRPPRLPRPRPRPHWHPRP	0.0139
RRIRNRPPRLPRPRPRPDWPPRP	0.0862
RRIRERPPRLPRPRPRPSEEPRP	-0.0988
RRIRKRPPRLPRPRPRPTSLPRP	-0.00423
RRIRDRPPRLPRPRPRPNENPRP	-0.177
RRIRHRPPRLPRPRPRPAADPRP	0.274
RRIRQRPPRLPRPRPRPFWNPRP	-0.00884
RRIRCRPPRLPRPRPRPNSCPRP	-0.394
RRIRPRPPRLPRPRPRPDGNPRP	0.0274
RRIRWRPPRLPRPRPRPGLAPRP	0.505

Sequence	shrunken log2 fold change
RRIRNRPPRLPRPRPRPYAPPRP	-0.702
RRIRSRPPRLPRPRPRPVWYPRP	0.154
RRIRFRPPRLPRPRPRPNGVPRP	-0.0018
RRIRPRPPRLPRPRPRPSHIPRP	-0.505
RRIRCRPPRLPRPRPRPLALPRP	-0.621
RRIRCRPPRLPRPRPRPYFAPRP	-0.563
RRIRKRPPRLPRPRPRPTSAPRP	0.797
RRIRFRPPRLPRPRPRPRCTPRP	0.0551
RRIRSRPPRLPRPRPRPILRPRP	-0.0847
RRIRRRPPRLPRPRPRPAHYPRP	0.445
RRIRSRPPRLPRPRPRPIWHPRP	-0.271
RRIRFRPPRLPRPRPRPTSTPRP	-0.0598
RRIRSRPPRLPRPRPRPIAFPRP	-0.388
RRIRERPPRLPRPRPRPFAFPRP	-0.0942
RRIRMRPPRLPRPRPRPNVGPRP	-0.0241
RRIRMRPPRLPRPRPRPYWTPRP	-0.354
RRIRVRPPRLPRPRPRPWNQPRP	0.0232
RRIRQRPPRLPRPRPRPRWKPRP	0.552
RRIRLRPPRLPRPRPRPKCNPRP	-0.647
RRIRIRPPRLPRPRPRPHQLPRP	-0.52
RRIRDRPPRLPRPRPRPVTTPRP	0.0135
RRIRYRPPRLPRPRPRPWHMPRP	-0.311
RRIRQRPPRLPRPRPRPDWRPRP	0.0703
RRIRERPPRLPRPRPRPVPSPRP	-0.0655
RRIRARPPRLPRPRPRPICDPRP	0.497
